# Experiment: soluble on expression in E. coli; label from the status in PepcDB or PDB records
row,Sequence,soluble on expression in E. coli
1,MGSDKIHHHHHHVRFIMKTNLFTSLLKKCIYGLSWFFPRQGNKAVFGCYKNLFADNSKYLYLHWHKNKFMHVIWISGDASLVNALRKKGFIAYERWSLEGVYHALTARFYIYNSYIGDVNQWFASGSIKINLWHGSPLKRIEFDIDHGPLAHKYQSNSYWQKTWHSLLYHQEYVRPQLMLSPSPLVDRLFCSAFRLQKKQLLSCGNPRTDFYRRYPDKCQSINSKPDGTSYKKVILYAPSWRDANLSNTETVQSPYEKAFNWGVLSQFLVNSDCLFLLRLHPNERHYAKHFSAYPNVRDISSWEDVYGILHQVDLLLTDYSSLFIDVLPLNIPIVFYLFDHESYIKNSRNCYEYSQCLPQAGLIAYGFEELINILKNNTSKKQTETLHLAYTQLQKLYWQEMNEHSDCFELLERYICRRNLLKSPLNTQIS,not soluble
2,MGSDKIHHHHHHMVINIEQAIAWMASRKGKVTYSMDYRNGPSSYDCSSSVYFALRSAGASDNGWAVNTEYEHDWLIKNGYVLIAENTNWNAQRGDIFIWGKRGASAGAFGHTGMFVDPDNIIHCNYGYNSITVNNHDEIWGYNGQPYVYAYRYARKQSNAKVDNQSVVSKFEKELDVNTPLSNSNMPYYEATISEDYYVESKPDVNSTDKELLVAGTRVRVYEKVKGWARIGAPQSNQWVEDAYLIDATDM,not soluble
3,MGSDKIHHHHHHMTHLDDMALFVEVVKAKGFRGAADALGMPNSTLSRRIGALEKAIGLRLLHRTTRKVEPTEAGLLYYERSKRIVEEARLVHEQLGEMLAQPSGLLRASFPEGFANIFLAPLVAEFARRYPGIRFEFDLSPRLADLVSDPVDVAIRMGEPANSNLIARQLARLPRHLYASPRYLDMLGEPQHPDELVQHECLRLRGSKSDIWTVQNRDETVDVAVGGRFLLNSVGMIQRLAALDMGIAILAESIVTDDVAQGRLRRVLPQWEATPVPVYALTETRLLPAKTQRFIDFLREHLSSI,not soluble
4,MYIGGTGVEGYHHLFKEILDNAVDEALAGYATEILVRLNEDGSLTVEDNGRGIPVDLMPEEGKPAVEVIYTTLHSGGKFEQGAYKVSGGLHGVGASVVNALSEWTVVEVFREGKHHRIAFSRGEVTEPLRVVGEAPRGKTGTRVTFKPDPEIFGNLRFDPSKIRARLREVAYLVAGLKLVFQDRQHGKEEVFLDKGGVASFAKALAEGEDLLYEKPFLIRGTHGEVEVEVGFLHTQGYNAEILTYANMIPTRDGGTHLTAFKSAYSRALNQYAKKAGLNKEKGPQPTGDDLLEGLYAVVSVKLPNPQFEGQTKGKLLNPEAGTAVGQVVYERLLEILEENPRIAKAVYEKALRAAQAREAARKARELVRRQNPLESDELPGKLADCQTENPEEAELFIVEGDSAGGSAKQGRDRRFQAILPLRGKILNVEKAGLSKALKNAEVRAMVSAIGVGIGGDGEAHFDLEGLRYHKIIIMTDADVDGSHIRTLLLTFFYRYMRPLIERGHVYIAQPPLYRLQVGKKVEYLYSDEELQARLKELEGKHYEVQRFKGLGEMNPEQLWETTMNPEKRVLKRVELQDALEASELFEKLMGQEVAPRREFIEEHARYAELDI,soluble
5,GEQPSIQLTFADQNNSEMSVVHLNQLLKTNHISADKIIEKDGKTTIVFDGEDAQSKARALLNKELNKDDSITFSYVSVAPEWLNEMGFSPIKLGLDLRGGVQFLLNVDVNKAFEEQRDALIDEINASRDQRVRGVQVRAESGNRITVNSDSEQALSEVNKFLRQNYPGWISKSSSRGFVLEPSEQNIQEFQSSTLQQNLKIMRGRIEELGITEALVQRQGKESIRIELPGVQDPAQAKNVIGATASLAFYEVKDASQAHSSQDLVLQDNDGRTVILAKRPVLTGEHIVNARAGVDKMGMSEVNISLDHAGGKKMSDFSATHIGKPMATVYREYKTNDRGVTERSERVISVATIQSQLGSQFRITGAGSMDDAQQLALLLRAGSLTAPVTIVEERTIGASLGAENIEN,not soluble
6,MAHHHHHHMQRNWVLLPQTVRAGDAPKSSAVRTPTRPLPYVCLKSNDGMEFVLPEVAARQSKMLAMLLDAVYSLPERGGFAEPTNARGEQHTTVHASNNIGTMPCIPLEVLSGRILELVCRYLVQRSTSDVNSTDEFALLGELNPTSSSDQDIVLGLLMASDYLDC,soluble
7,MATIKIKFRTSSVKTKEGVLFYQIIHARVTRQINTGYKIFPSEWDKHLACIILPDNNDIRRRFLAQLTSRIAEDMHRLKNIISKLEHSGNPFTSGKIIELFRIPPINKYSFLSFAQDLIIQLKQIGKERTAESYASAYNSFKRFMDNNGDVLLEDVNSNLMIKYEIYLKNCGVCPNSCSYYMRNLRAIYNRAVEKELTQQQYPFKYVYTGIDKTVKRAVSLKTIRQIQNLDLSTNPLMDYARDIFMFSFYTRGMSFIDMAYLKKKDLQNGVLSYRRHKTDQQLFIKWEKPMQKIVDKYNTIESSYLLPIIKNNGKDPRREYKNASHLINRKLKVIGQMLEIPVTLTTYVARHAWANIAKSKNISISVISEAMGHDSENTTRIYLASLDASIVDKANSIILKSL,not soluble
8,MGSDKIHHHHHHMPHYDVVDTSNNNGIMTVANWRSMKKYGVKAMIAKLSEGTYFTDQTAKPSIRNAITAGLHVNGYHFARFTTETGAKAEAQMAARSALKAGLGKSSVIVLDFEATNSGWNQNSKIVKAWINEVHRMGYPKTDVYTMGSWINSVPLNNSGRGGWVANYPYNPSGFKLYTGYNGWQWTSSMHFPGCYGGFDVSQMYSNYYYGTTTHVAKPKKAIYYRYNPKMIYARTPINRYKDVAFKHKVDNFPAGTVFAIAKVINYGKITRFQLANGYYITSNQTNVNRLYYSVDGGVKRVKSVRGTHRYKDKALKHVVDWQPAETEFDVAKIVKYGDTTRIQLANGLFISGNKKINKFVK,not soluble
9,MDMKRRIHLELRNRTPAAVRELVLDNCKSNDGKIEGLTAEFVNLEFLSLINVGLISVSNLPKLPKLKKLELSENRIFGGLDMLAEKLPNLTHLNLSGNKLKDISTLEPLKKLECLKSLDLFNCEVTNLNDYRESVFKLLPQLTYLDGYDREDQEAPDSDAEVDGVDEEEEDEEGEDEEDEDDEDGEEEEFDEEDDEDEDVEGDEDDDEVSEEEEEFGLDEEDEDEDEDEEEEEGGKGEKRKRETDDEGEDD,soluble
10,MRTVALGIVAMACLVAIAHGGNFFQDAEVSWGQGRGKIVDGGRGLDLTLDRSSGSGFQSKSEYLFGKIDMQIKLVPGNSAGTVTTFYLSSQGSTHDEIDFEFLGNVTGEPYTLHTNVFTQGQGQREQQFRLWFDPTQSFHTYSIIWNPQHVIFAVDGTPIRDFKNHEARGVAFPKSQPMRVYASLWNADDWATQGGRVKADWSKAPFVASFRDFNADACVWSNGAQRCPVGTMETVAAPAGGRRGGAGGWWNQELSDMSYRRMRWVQRKFMIYNYCTDAKRFPQGTPAECKLR,soluble
11,MKRIAFVGSVGAGKTTLFNALQGNYTLARKTLAVEFNDKGDIDTPGEYFSHPRWYHALITTLQDVDMLIYVHGANDPESRLPAGLLDIGVSKRQIAVISKTDMPDADVAATRKLLLETGFEEPIFELNSHDPQSVQQLVDYLASLTKQEEAGEKTHHSELEHHHHHH,soluble
12,MWKLQSPHSCVPMLVWDCSLHPPSQYCSPLFETAVAENINRLSSHCIKKKSIQRGEKMKKILKLLSCIVVLTIAGCLNQPPPSTLALWEKPGADKAMTQQALTKCGWKPVYASPDDMNSYASEFASVYECMKKAGFRYKLQDSKGIYFSPPAKSSSFLSNLMVAGYQQFMENESFGVSNSTKHERELMLRIEKEKKRQKTKKSLQR,not soluble
13,MIDELATKANVALKAMEDFTQEQVDHIVHQMAMAALDQHMPLAKMAVEETGRGIYEDKAIKNMYASEYIWNNIKHDKTVGVINKDEQTGLMEIAEPVGVVCGVTPTTNPTSTTIFKSLIALKTRNPIVFAFHPSAQKCSAEAARIVRDAAIAAGAPENCIQWIEQPSIDATSALMNHPGIAIVLATGGAGMVKSAYSTGKPALGVGPGNVPAYIEKTAKVKRAVNDLIVSKSFDNGMICASE,not soluble
14,MAVNQDTLYVKGDRNVEVTKREVTLGDLVSMECSNRVILPHLKTMKVLKIPENGEKRYVISILKIIACIHEKYPGLEVQNLGETDLIVTYEMQKTPSK,soluble
15,MGSDKIHHHHHHMAILQLGMAFDADAFSASVIGIAADVGSHDSGVHRHGKGQLLYAPQGCITFAWEDAIGILPPTKAVWIPPHTPHRAVMTNVVAYRSLYFDCSRIVAPASVTMVDVNPLLKALIDKMAFWPWDTPEASMTHSCALFWEEFYAARCHSFRLTIPVDRRFHGFRQQLFRPEFLPPDIDSLAATIGASTKTVTRLFKRDTGMSYQEWRQQWRLLKAIELLSGALPVSEVGFRLGFSSDSAFIAFFRKQTGKTPRHFMQG,not soluble
